Patent US20200010567A1 (NEURIMMUNE, published 2020)

Legend:
GP20: H-(GP)20HHHHHH-NH2 = biological target: T1, GP20: H-(GP)20HHHHHH-NH2 (C-terminal amide); assay: sandwich ELISA, peptide captured by anti-His antibody
T1 peptide: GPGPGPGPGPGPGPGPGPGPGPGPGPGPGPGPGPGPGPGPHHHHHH
From the text: In brief, His-tagged dipeptide repeat protein peptides were synthesized and purified by Schafer-N(Copenhagen, Denmark): GA₂₀: H-(GA)₂₀HHHHHH-NH₂; GA₁₀: H-(GA)₁₀HHHHHH-NH₂; GA₆: H-(GA)₆HHHHHH-NH₂; GA₅: H-(GA)₅HHHHHH-NH₂; GA₄: H-(GA)₄HHHHHH-NH₂; GA₃: H-(GA)₃HHHHHH-NH₂; GA₂: H-(GA)₂HHHHHH-NH₂; GP₂₀: H-(GP)₂₀HHHHHH-NH₂; GP₁₀: H-(GP)₁₀HHHHHH-NH₂; GP₆: H-(GP)₆HHHHHH-NH₂; GP₅: H-(GP)₅HHHHHH-NH₂; GP₄: H-(GP)₄HHHHHH-NH₂; GP₃: H-(GP)₃HHHHHH-NH₂; GP₂: H-(GP)₂HHHHHH-NH₂. 96-well microplates (Corning Incorporated, Corning, USA) were coated with monoclonal mouse anti-His tag antibody (Takara Bio Europe/Clontech, Saint-Germain-en-Laye, France) at a concentration of 10 μg/ml in coating buffer (15 mM Na₂CO₃, 35 mM NaHCO₃, pH 9.42) overnight at 4° C. Non-specific binding sites were blocked for 1 h at room temperature with PBS/0.1% Tween®-20 containing 2% BSA (Sigma-Aldrich, Buchs, Switzerland). After a washing step, His-tagged C9orf72 DPR protein peptides at equal concentration of either 1 μM or 5 μM in PBS (pH 7.4) were added for target-trapping by the anti-His tag antibody for 1 h at room temperature. […] Antibody binding to DPR protein peptides was detected by a donkey anti-human IgG Fcγ-specific antibody conjugated with HRP at 1:5000 dilution (Jackson ImmunoResearch Laboratories, Inc., West Grove, USA) for 1 h at RT. Binding was determined by measurement of HRP activity in a standard colorimetric assay. EC₅₀ values were estimated by non-linear regression using GraphPad Prism software (San Diego, USA).

GA5: H-(GA)5HHHHHH-NH2 = biological target: T2, GA5: H-(GA)5HHHHHH-NH2; assay: indirect ELISA, His-tagged peptide coated at 50 ug/ml, antibody titrated [also D00026 FIG. 7K]
T2 peptide: H-GAGAGAGAGAHHHHHH-NH2
Procedure: (§1) 96-well microplates (Corning Incorporated, Corning, USA) were coated with dipeptide repeat protein peptides at a concentration of 50 μg/ml in coating buffer (15 mM Na₂CO₃, 35 mM NaHCO₃, pH 9.42). Non-specific binding sites were blocked for 1 h at room temperature with PBS/0.1% Tween®-20 containing 2% BSA (Sigma-Aldrich, Buchs, Switzerland). Primary antibodies were diluted to the indicated concentrations and incubated 1 h at room temperature, followed by incubation with a donkey anti-human IgG Fcγ-specific antibody conjugated with HRP (Jackson ImmunoResearch Laboratories, Inc., West Grove, USA). Binding was determined by measurement of HRP activity in a standard colorimetric assay. EC₅₀ values were estimated by non-linear regression using GraphPad Prism software (San Diego, USA).
(§2) High affinity binding was detected for poly-GA DPRs harboring 10 or 20 (GA)-repeats, reflected in an EC₅₀ in the subnanomolar or low nanomolar range (FIGS. 7A, 7C-7I).

GA4: H-(GA)4HHHHHH-NH2 = biological target: T3, GA4: H-(GA)4HHHHHH-NH2; assay: as above
T3 peptide: H-GAGAGAGAHHHHHH-NH2
Procedure: as §1, §2

GA3: H-(GA)3HHHHHH-NH2 = biological target: T4, GA3: H-(GA)3HHHHHH-NH2; assay: as above
T4 peptide: H-GAGAGAHHHHHH-NH2
Procedure: as §1, §2

GA2: H-(GA)2HHHHHH-NH2 = biological target: T5, GA2: H-(GA)2HHHHHH-NH2; assay: as above
T5 peptide: H-GAGAHHHHHH-NH2
Procedure: as §1, §2

[1] = biological target: T6, BSA-coupled (GA)15 DPR protein peptide (bovine, conjugated via a bifunctional linker (SMCC) to bovine serum albumin); assay: indirect ELISA, BSA-coupled peptide coated, antibody titrated [also D00012 FIG. 3B]
T6 construct: also called BSA-(GA)15
T6 sequence (peptide, as listed by the source limits assumed, chain 1 of 2): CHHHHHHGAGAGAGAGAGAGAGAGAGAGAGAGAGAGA
T6 sequence (P02769 25-607 limits assumed, chain 2 of 2): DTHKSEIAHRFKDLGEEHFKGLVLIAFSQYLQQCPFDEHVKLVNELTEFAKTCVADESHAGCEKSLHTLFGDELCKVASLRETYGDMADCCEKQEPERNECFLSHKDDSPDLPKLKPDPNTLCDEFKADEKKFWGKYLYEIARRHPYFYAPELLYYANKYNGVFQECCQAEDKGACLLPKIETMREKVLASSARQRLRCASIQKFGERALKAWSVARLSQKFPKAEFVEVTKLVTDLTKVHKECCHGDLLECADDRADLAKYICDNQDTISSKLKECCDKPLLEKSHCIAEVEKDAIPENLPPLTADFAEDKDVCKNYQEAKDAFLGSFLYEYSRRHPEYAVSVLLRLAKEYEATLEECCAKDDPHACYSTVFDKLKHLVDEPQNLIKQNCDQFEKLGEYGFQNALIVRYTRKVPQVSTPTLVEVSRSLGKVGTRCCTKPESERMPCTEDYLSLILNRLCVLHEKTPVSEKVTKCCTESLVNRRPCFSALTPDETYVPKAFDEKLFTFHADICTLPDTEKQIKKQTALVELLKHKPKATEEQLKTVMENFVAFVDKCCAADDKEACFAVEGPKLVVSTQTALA
Procedure: as §1, with “In brief, dipeptide repeat proteins were synthesized and purified by Schafer-N(Copenhagen, Denmark): (GA)₁₅: H-CHHHHHH(GA)₁₅-OH; (GP)₁₅: H-C(GP)₁₅-OH; (GR)₁₅: H-C(GR)₁₅-OH; (PA)₁₅: H-C(PA)₁₅-OH; (PR)₁₅: H—C(PR)₁₅-OH. DPR protein peptides were then conjugated via a bifunctional linker (SMCC) to bovine serum albumin (BSA). 96-well microplates” for “96-well microplates”, “coated with BSA-coupled or -uncoupled dipeptide repeat” for “coated with dipeptide repeat”, “concentration of either 5 μg/ml or 20 μg/ml in” for “concentration of 50 μg/ml in”

B1: NI-308.5G2 (antibody, V domains shown)
VH: EVQLVQSGADLRNPGASVTVSCTASGYHFADNAINWLRQAPGQRLEWMGWINIYSGNTKYSQNFQGRVTFTRNTSASTAFMHLRSLRSEDTAVYFCARDPDSSGYYLPYFDYWGQGTLVTVSS
VL: DIQLTQSPDSLTLSLGERATINCKSSQSVFYNSNNKNYLAWYQQKPGQPPKLLMYWASTRESGVTDRFSGSGSGTDFTLTITNLQAEDVAVYYCQQFYSSPLTFGGGTKVEIK
notes: Recombinant complete human IgG1, kappa
GP20: H-(GP)20HHHHHH-NH2
  EC50: 0.0382 µM
GA5: H-(GA)5HHHHHH-NH2
  binding result: no binding (tested: about 4x10^5 pM (last point))
GA4: H-(GA)4HHHHHH-NH2
  binding result: no binding (tested: about 4x10^5 pM (last point))
GA3: H-(GA)3HHHHHH-NH2
  binding result: no binding (tested: about 4x10^5 pM (last point))
GA2: H-(GA)2HHHHHH-NH2
  binding result: no binding (tested: about 4x10^5 pM (last point))

B2: NI-308.18F7 (antibody, V domains shown)
VH: QVQLQESGPGLVKPSETLSVTCTVSGGSINDYYWNWIRQPAGKGLEWIGRIYASGTINYNPSLQSRVTMSIDTSKNQFSLDLISVSAADTAVYYCARWGQVVGDYYYGMDVWGQGTTVTVSS
VL: EIVLTQSPLSLSVTPGEPASISCKSSQSLQHTNGYNYLDWYLLKPGQSPQLLIFLTSNRASGVPDRFSGSGSGTNFTLKISRVEAEDVGVYYCMEGIQLWTFGQGTKLEIK
notes: as for B1
[1]
  EC50: 0.00011 µM
